B1: TPR t1 (parent)
chain: GACCAAUCUGCCCUCAGAGCUCGAGAACAUCUUCGGAUGCAGAGGAGGCAGGCUUCGGUGGCGCGAUAGCGCCAACGUCCUCAACCUCCAAUGCAUCCCACCACAUGAUGAUGCCUGAAGAGCCUUGGUUUUUUG

Variants of: B1
Test: polymerase ribozyme fitness, log enrichment relative to wild type (log ratio); higher = more active; in vitro selection for triplet polymerase activity
How it was run: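 Mutant libraries of both subunits of a heterodimeric triplet polymerase ribozyme were PCR-built, transcribed, and selected once in triplicate, with frozen incubation at −7 °C and capture of gel-excised extended constructs on streptavidin beads before RT-PCR. Illumina sequencing of input and output libraries was filtered to genotypes with ≥10 input reads and ≥1 read per output. Fitness is the logarithm of genotype enrichment over wild-type enrichment, using inverse-variance-weighted replicate averages. The logarithm is base 2.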

Variant | polymerase ribozyme fitness (log ratio)
G71U G117A | -1.51
C72A C79A C94A G127C | -2.85
C70U U92G A118G | -3.55
C70A C88U | -1.26
C70U A90C U92C C102A G120C U132A | -5.71
G71C C82A U112A A118U | -0.627
C70G A100U G117A A118C | -6.05
C70U C72U A95C A111U | -5.58
C70U A111G G120C | -4.93
C72G C80U | -0.861
C70G C124G | -0.578
G71A C73U | -2.15
C70G C85A | -4.06
C72G G110C | -2.42
G71A U129G | -2.44
G69U G110U | 0.852
G69U G110C | -2.61
G71A C101A G113U | -5.02
C70A A105C G120C | -5.66
C70U G122A U126A | -3.62
G71U C82A | -1.91

Variant | polymerase ribozyme fitness (log ratio)
G71U C102U | -1.69
G69U G93U | -1.01
C70U U106A | -0.205
C70U U96G | -1.09
C72A U109C | -2.36
C70A G71C | -4.68
C72G C85G A100C A121C | -1.55
G69U U96G | -0.302
C70G C94A | -3.62
G71A U92A A121U | -2.31
G69U U126G | -0.571
G69U U81G U116C | -1.49
C70A U126A | -2.53
G69U C70U | -0.561
G69U U87A C97A | -2.19
C72A C89A U106A | -2.09
C70G C89U | -2.75
C70U G128A | -2.28
G71A A119G | -0.102
C70A U78C C102U | -4.3
G69U C124A | 1.92

Variant | polymerase ribozyme fitness (log ratio)
G69U C124G | 1.3
C72A U96A | -1.74
C70U U78A A95U U112G | -2.17
G71C U130G | -1.76
C72A C88U | -0.32
C70U C80U A90C C98U | -5.92
C72A C82A | 0.281
C72A C82U | 0.305
G71U C80A | -5.28
G71C G77C C114G U116G | -5.32
G69U G110A U125A G127A | -0.849
C72A U92A | -2.67
C70U A83U | -0.296
C72U A95C C97U | -2.94
G71U U125A | -1.21
C72G C102A | -2.79
G71U C99U U129A | -5.39
C72U A84G G117C | -4.48
C70G A84G | -5.21
C70U G77C | -1.78
G71A U78G A84U | -2.58

Variant | polymerase ribozyme fitness (log ratio)
C72A G93C C102A U106A G110A U125A G127A | -6.51
G69U U129G | -1.02
G71A C99U | -3.17
C72G C73U G128U | -3.92
G71C A75G | -0.0431
C72A C85A | 0.00801
C70G C104U | -3.03
G69U U130A | -0.136
C72A G110A C115A | -2.51
C72A C98A | -4.32
G71U U92A G93U | -3.61
G71A U130C | 0.53
C70A C82A U92C | -3.72
G69U C114U U133A | -1.47
G71A A74G C88A C97A G117C | -5.77
C70U A91C C101U U112A U129C | -6.24
C70G A111G G135U | -4.58
G71C A84G C104A U109G G117U C124A U130G | -5.84
C70U U78G U116G | -2.23
C70U C104U U130G | -0.752
